{"source": "the nanobody polyreactivity screen of Harvey et al. (2022)"}
{"assay": "yeast display, Sf9 membrane polyspecificity reagent, FACS + sequencing; frameworks hold sequencing errors", "summary_of_the_method": "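Sorting gates, low and high (top ~1%), were placed on anti-HA fluorescence to track expression and on streptavidin fluorescence to track reagent binding. A clone's polyreactivity label is taken from the gate it came out of. The reagent was 10% biotinylated, detergent-solubilized Sf9 membrane, applied for 1 hour at 4 °C to galactose-induced yeast display cells.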"}
{"sequence": "QVQLVESGGGLVQAGGSLRLSCAASGYTYRWYAMGWYRQAPGKEREMVAAINRNGGSTFYADSVKGRFTISRDNAKNSVYLQMNSLKPEDTAVYFCAARYSSLPRYLTDGLDYWGQGTQVTVSS", "polyreactivity (PSR sort gate)": "high polyreactivity"}
{"sequence": "QVQLVESGGGLVQAGGSLRLSCAASGRILDAYTMGWYRQAPGKERQLVAAISASGVSTYYADSVKGRFTISRDNAKNTVYLQMNSLKPEDTAVYYCAKDYYQQTGFLEYDYWGHGTQVTVSS", "polyreactivity (PSR sort gate)": "low polyreactivity"}
{"sequence": "QVQLVETGGGLVQAGGSLRLSCAASGSIFYGYAMGWYSQSHGQEREFVAAITFSATSTYYADSVKGRFTISRDNAKNPVYLQMNSLKPEDTAVYYCAAVIGDWQYQYYYWGQGTLVTVSS", "polyreactivity (PSR sort gate)": "low polyreactivity"}
{"sequence": "QVQLVESGGGLVQAGGSLRLRCAASGSTFYRYALGWYRQAPGKERELVAVITSGGGTYSADSVKGRFSISRDNAKNTVYLQLNSRKPEDTAVYDCAARYLRTRNYQYDYWGQGTQVTVSS", "polyreactivity (PSR sort gate)": "high polyreactivity"}
{"sequence": "QVQLVESGGGLVQAGGSLRISCAASGRIFYYNVMGWYRQAPGKEWELVASISYSSTRTYYADSVKGRFTISRDNGMNTFYLQMNSLKPEDTAVYYCAVDGYSYYSMDYWGQGTQVTVSS", "polyreactivity (PSR sort gate)": "low polyreactivity"}
{"sequence": "QVQLVESGGGLVQAGGSLRLSCAASGSTLSLYAMGWYRQAPGKERELVAAITSSGGTYYADSVKGRFTISRDNAKNTVYLQMNGLKPEDTAVYYCAAQSYSRMDYWGQGTQVTVSS", "polyreactivity (PSR sort gate)": "high polyreactivity"}
{"sequence": "QDQLVESGGGLVQAGGSLRLSCAASGLIFPAYTMGWSRQAQGKERELVAAISRSGGSTYYADSVKGRFTISRDNAKNTVYLQMNSLKPEDTAVYYCAAYYSGGYDYWGLGTQVTVSS", "polyreactivity (PSR sort gate)": "high polyreactivity"}
{"sequence": "QVQLVESGGGLVQAGGSLRLSCAASGFIFLPYAMGWYRQEPGKERELVAAITRGGRTYYADSVKGRFTISRDNAKNTVSLQMNSLKPEVTAVSYFAATPYLFWGYNYWGQGTQVTVSS", "polyreactivity (PSR sort gate)": "low polyreactivity"}
{"sequence": "QVQLVESGGGLVHAGGSLRLSCAASGYTFSRNAMGWYRQAPGKERELVAAITGSGGSTYYADSVKGRFTISRDNAKNTVYLQMNSLKPEDTAVYYCATEVKRGYVGFDYWGQGTQVTVSS", "polyreactivity (PSR sort gate)": "low polyreactivity"}
{"sequence": "QVQLVESGGGLVQAGGSLRLSCAASGRTFFLYTIGWYRQAPGKEREFVAAITTIGGSTYYADSVKGRFTISRDNAKNTVSLQMHSLKPEDTAVYYCNARVGPELHDYWGQGTQVTVSS", "polyreactivity (PSR sort gate)": "low polyreactivity"}
{"sequence": "QVQLVESGGGLVQAGGSLRLSCAASGFTFFHYAMGWYIQAPGKERELVAAITRSGSSTYYADSVKGRFTISRDNAKNTVYLQMNSLKPEDTAVYYCAADYISRGGYTIEDYWGQGTQVTVSS", "polyreactivity (PSR sort gate)": "low polyreactivity"}
{"sequence": "QVQLVESGGGLVQAGGSLRLSCAASGSIFQYYVMGWYRQAPGKERELVAAISQSGGRTYYADSVKGRFTISRDNAKNTVYLQMNSLKPEDTAVYYCAADSRNAEYDYWGQGTQVTVSS", "polyreactivity (PSR sort gate)": "high polyreactivity"}
{"sequence": "QVQLVESGGGLVQAGGSLRLSCAASGRTFTRYAMGWYRQAPGKERELVATITRGGSTNYADSVKGRFTISRDNSKNTVYLQMNSLKPEDTAVYYCAAGYFIRTRSRYRYDYWGQGTQVTVSS", "polyreactivity (PSR sort gate)": "high polyreactivity"}
{"sequence": "QVQLVESGGGLVQAGGSLRLSCAASGSILTPYAMGWYRQAPGKERELVAAISWGDGSTYYADSVKGRFTISRDNAKNTVYLQMNSLNPEDNAVYYCAAVSYYGVDQYRITVYTYEYWGQGTQVTVSS", "polyreactivity (PSR sort gate)": "low polyreactivity"}
{"sequence": "QVQLVESGGGLVQAGGSLRLSCAASGLIFYAYAMGWYRQAPGKERELVAAISYSGGSTYYADSVKGRFTISRDNAKNTVYLQMNSLKPEDTAVYYCAASYISVYWRWYEYWGQGTQVTVSS", "polyreactivity (PSR sort gate)": "high polyreactivity"}
{"sequence": "QVQLVESGGGLVQAGGSLRLSCAASGNTFYGYARGWYRQAPGKERELVASITLSGDSTYYADSVKGRFTISRDNAKNTVYLPMNSLKPEDTAVYYCNADWYFQYPYDYWGQGTQVTVSS", "polyreactivity (PSR sort gate)": "low polyreactivity"}
{"sequence": "QVQLVESGGGLVQAGGSLRLSCAASGRIFGVNAMGWYRQAPGKERELVAAITSGGSTNYADSVKGRFTISRDNAKNTVYLQMNSLKPEDTAVYYCAAVNYYWGQGTQVTVSS", "polyreactivity (PSR sort gate)": "low polyreactivity"}
{"sequence": "QVQLVESGGGLVQAGGSLRLSCAASGSILRYYAMGWFRQAPGKERELVAAISYSGGSTYYADSVKGRFTISRDNAKNTVYLQMNSLKPEDTAVYYCNKLYDRGYDYWGQGTQVTVSS", "polyreactivity (PSR sort gate)": "high polyreactivity"}
{"sequence": "QVQLVESVGGLVQAGGSLRLSCAATGSTFGVNDMGWYRQSPGKERQFVADITTSGGSTYYADSVKWRFTISRDIAKNTVYLQMNSLKPEDTAVYYCAADLWPFEHDDYWGQGTQVTVSS", "polyreactivity (PSR sort gate)": "low polyreactivity"}
{"sequence": "QVQLVESGGGLVQAGGSLRLICAASGRILYGNVMGWYRQAPGKERELVAAIDSSGATTYYADSVKGRFTISRDNAKNTVYLQMNSLKPEDTAVYYCAAEVTSFSFGGDATEYYWGQGTQVTVSS", "polyreactivity (PSR sort gate)": "low polyreactivity"}
{"sequence": "QVQLVESGGGLVQAGGSLRLSCAASGRTFYFNGMGWYRQAPGKERELVAAIRWRDSNTYYADSVKGRFTISRDNAKNTVYLQMNSLKPEDTAVYYCNVGIYSYGINGRYDYWGQGTQVTVSS", "polyreactivity (PSR sort gate)": "high polyreactivity"}
{"sequence": "QVQLVESGGGLVQAGGSLRLSCAASGFTFGSNVMGWYRQAPGKERELVAAIRGRGGSTYSADSVKGRFTISRDNAKNTVYLQMNSLKPEDTAVYYCNAVQRYQMGYCGQGTQVTVSS", "polyreactivity (PSR sort gate)": "high polyreactivity"}
{"sequence": "QVQLVESGGGLVQAGGSLRLSCAASGYTFPMYAMGWYRQAPGKERELVADINIGGASTYYADSVKGRFTISRDNAKNTVYLQMNSLKPEDSAVYYCAKEYYDGYFPTFDYDYWGQGTQVTVSS", "polyreactivity (PSR sort gate)": "low polyreactivity"}
{"sequence": "QVQLVESGGGLVQAGGSLRLSCAASGLTFTYYAMGWNRQAPGKQRELVAAISSSGSDTYYADSVKGRFTISRDNAKNTVYLLMNSLKPEDTAVYYCAAVLTALSPDFEYEYWGQGTQVTVSS", "polyreactivity (PSR sort gate)": "low polyreactivity"}
{"sequence": "QVHLVESGGGLVQAGGSLRISCAASGSNFSYYARGWYRQAPGKESELVAAISQSGGTTYYADSVKGRFTISRDHAKNTVYLQMNCLKPEDTAVYYCAARAPSSFDTQYYYWGLGTQVTVSS", "polyreactivity (PSR sort gate)": "low polyreactivity"}
{"sequence": "QVQLVESGGGLVQAGGSLRLSCAASGSTINQYPLGWYRQATGKERELVAAITRRGGSTYYADSVKGRFTISRDNAKNTVYLQMNSLKPEDTAVYYCAAAYPYTTVSYDYWGQGTQVTVSS", "polyreactivity (PSR sort gate)": "high polyreactivity"}
{"sequence": "QVQLVESGGGLVQAGGSLRLSCAASGSIFRRNAMGWYRQAPGKERELVAGIRGSGGSTYYADSVKGRFTISRDNAKNTVYLQMNSLKPEDTAVYYSAARRSYYHGSYDYWGQGTQVTVSS", "polyreactivity (PSR sort gate)": "high polyreactivity"}
{"sequence": "QVQLVESGGGLVQAGGSLRLSCAASGFIFGGYAMGWYRQAPGKERELVAAISRSGGSTYYADSVKGRFTISRDNEKNTVYLQMNSVKPEDTAVYYCNAVPRRQGFNYWGQCTQVTVSS", "polyreactivity (PSR sort gate)": "high polyreactivity"}
{"sequence": "QVKLEDSGGGLVQAGGSLRLSCAASGSTFEKYVMGWYRQAPGKERELVAAITYSGDSTYYADSVKGRFTISRDNAKNTVYLQMNSLKPEDTAVYYCAAKTTRTSIPRKGRGYYYWGQGTQVTVSS", "polyreactivity (PSR sort gate)": "high polyreactivity"}
{"sequence": "QVQLVESGGGLVQAGGSLRLSCAASGSTLVIYAMGWYRQAPGKEREFVAAIRWSTGRTYYADSVKGRFTISRDNAKNTVYLQMNSLKPEDTAVYYCNASYWAPNSLPDGFRYDSWGQGTQVTVSS", "polyreactivity (PSR sort gate)": "high polyreactivity"}
{"sequence": "QVQLVESGGGLVQAGGSLRLSCAASGFIFVDYDMGWYRQAPGKERELVASINWSGGSTDYADSVKGRFTISRDNAKNTVYLQMNSLKPEDTAVYYCAAEGQDGRFYWGQGTQVTVSS", "polyreactivity (PSR sort gate)": "low polyreactivity"}
{"sequence": "QVQLVESGGGLVQAGGSLRLSCAASGNIFPAYAMGWYRQAPGKERELVATISRRGGGTYYADSVKGRFTISRDNAKNTVYLQMNSLKPEDTAVYYCNVAGWTSAYDYWGQGTQVTVSS", "polyreactivity (PSR sort gate)": "low polyreactivity"}
{"sequence": "QVQLVESGAGIVQAGGSLRLSCAASGYTFQHYAMGWYRQAPGKERELVAAITRRGSGTYYADSVKGRFTISRDNAKNTVYLQMNSLKPEDTAVYYCGADWYYGDEYEYWGQGTQVNVSS", "polyreactivity (PSR sort gate)": "high polyreactivity"}
{"sequence": "QVQLVESGGGLVQAGGSLRLSCAASGSTVYVYAMGWYRQAPGKERELVATISSSGAITYYADSVKGRFTISRDNAKNTVYLQMNSLKPEDTAVYYCARTGSLLSQVWYNYWGQGTQVTVSS", "polyreactivity (PSR sort gate)": "low polyreactivity"}
{"sequence": "QVQLVESGGGLGQAGGSLRLSCAASGFIFTFYAMGWNRQAPGKERELVAAISWSGGSTYYADSVKGRFTISHDNAKNTVYLQMNSLKPEDTAVYSCNAQHARGYYYWGQGTQVTVSS", "polyreactivity (PSR sort gate)": "low polyreactivity"}
{"sequence": "QVQLVESGGGLVQAGGSLRLSCAASGYIFGRNAMGWYRQAPGKERELVAVSSSRGSRTYYADSVKGRFTISRDNAKNTVYLQMNSLKPEDTAVYYCAVRGVVNFDYWGQGTQVTVSS", "polyreactivity (PSR sort gate)": "high polyreactivity"}
{"sequence": "QVQLVESGGGLVQAGGSLRLSCASYGYIFWSYAMGWYRQAPGKERELVAAISASGGRTYYADSVKGRFTISRDNAKNTVYLQMNSLKPEDTAVYYCNADPGNHAYWYYGEFYYYTYDYWGQGTQVTVSS", "polyreactivity (PSR sort gate)": "low polyreactivity"}
{"sequence": "QVQLVESGGGLVQAGGSLRLSCAASGSTFGENAMGWYRQAPGKERELVAAINYSGGSTYYADSVKGRFTISRDNAKNTVYLQMNRLKPEDTAVYYCAAVNLPQLYYDYDYWGQGTQVTVSS", "polyreactivity (PSR sort gate)": "low polyreactivity"}
{"sequence": "QVQLVESCGGLVQAGGSLRLSCAATGLTISRNVMGWYRQAPGKEREWVAAISRSGSTYYADSVKGRFTISRDNAKNTVYLQMNSLKPEDTAVYYCAKERYYTGRYSGHDYCGQGTQVTVSS", "polyreactivity (PSR sort gate)": "high polyreactivity"}
{"sequence": "QVQLVESGGGLVQAGGSLRLSCAASGSIFYYYAMGWYRQAPGKERELVAAISSTGGSTYYADSVKGRFTISRDNAKNTVYLQMNSLKPEDTAVYYCAAYHYGSNVFYFDYWGQGTQVTVSS", "polyreactivity (PSR sort gate)": "low polyreactivity"}
{"sequence": "QVQLVESGGGLVQAGGSLRLSCAASGLTFGNYSKGWYRQAPGKERELVAAISKRGGTTYYADSVKGRFTISRDNAKNTVYLQMNSLKPEDTAVYYCAAQVGRGYEVYPVYKYGYWGQGTQVTVSS", "polyreactivity (PSR sort gate)": "high polyreactivity"}
{"sequence": "QVHLVESGGGLVQAGGSLRLSCAASGSIFYVYAMVWYRQAPGKERELVAAITWSGGSTYYADSVKGRFTISRDNAKNTVYLQMNSLNPEDTAVYYCAADEGYDYPYYYWGQGTQVSVSS", "polyreactivity (PSR sort gate)": "high polyreactivity"}
{"sequence": "QVQLVESGGGLVQAGGSLRLSCAASGGTFYPYAMGWYREAPGKEWELVAAISTSGGITYYADSVKGRFTISRDNAKNTVYLQMNSLKPEDTAVYYCAKVLRDYYTYYRWQYREFGYWGQGTQVTVSS", "polyreactivity (PSR sort gate)": "high polyreactivity"}
